Data on 36 substances can be found in patent publication US20140134132A1.

Holding throughout (assay): cell-based or functional assay
For experiment [1], the target named is organic anion transporting polypeptide 1B1 (UniProt Q9Y6L6).
Experiment [2] has as its target multidrug resistance associated protein 2 (human) (UniProt Q92887).
The target in another experiment is CYP3A4 (UniProt P08684).
CYP3A4, sequence (P08684 whole entry): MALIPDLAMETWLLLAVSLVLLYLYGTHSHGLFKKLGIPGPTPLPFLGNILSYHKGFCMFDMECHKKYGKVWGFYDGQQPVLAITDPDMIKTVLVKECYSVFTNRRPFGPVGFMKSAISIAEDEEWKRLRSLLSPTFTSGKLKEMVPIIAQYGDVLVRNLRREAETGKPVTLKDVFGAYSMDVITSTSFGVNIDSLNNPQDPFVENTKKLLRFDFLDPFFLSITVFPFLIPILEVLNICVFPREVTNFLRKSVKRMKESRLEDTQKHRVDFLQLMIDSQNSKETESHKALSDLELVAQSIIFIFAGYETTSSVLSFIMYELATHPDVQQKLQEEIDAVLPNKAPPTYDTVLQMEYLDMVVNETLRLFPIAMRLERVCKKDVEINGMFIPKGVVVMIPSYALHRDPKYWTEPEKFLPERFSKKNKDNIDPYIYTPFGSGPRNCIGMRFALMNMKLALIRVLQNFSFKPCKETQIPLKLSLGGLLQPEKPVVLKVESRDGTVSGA

organic anion transporting polypeptide 1B1, sequence (Q9Y6L6 whole entry): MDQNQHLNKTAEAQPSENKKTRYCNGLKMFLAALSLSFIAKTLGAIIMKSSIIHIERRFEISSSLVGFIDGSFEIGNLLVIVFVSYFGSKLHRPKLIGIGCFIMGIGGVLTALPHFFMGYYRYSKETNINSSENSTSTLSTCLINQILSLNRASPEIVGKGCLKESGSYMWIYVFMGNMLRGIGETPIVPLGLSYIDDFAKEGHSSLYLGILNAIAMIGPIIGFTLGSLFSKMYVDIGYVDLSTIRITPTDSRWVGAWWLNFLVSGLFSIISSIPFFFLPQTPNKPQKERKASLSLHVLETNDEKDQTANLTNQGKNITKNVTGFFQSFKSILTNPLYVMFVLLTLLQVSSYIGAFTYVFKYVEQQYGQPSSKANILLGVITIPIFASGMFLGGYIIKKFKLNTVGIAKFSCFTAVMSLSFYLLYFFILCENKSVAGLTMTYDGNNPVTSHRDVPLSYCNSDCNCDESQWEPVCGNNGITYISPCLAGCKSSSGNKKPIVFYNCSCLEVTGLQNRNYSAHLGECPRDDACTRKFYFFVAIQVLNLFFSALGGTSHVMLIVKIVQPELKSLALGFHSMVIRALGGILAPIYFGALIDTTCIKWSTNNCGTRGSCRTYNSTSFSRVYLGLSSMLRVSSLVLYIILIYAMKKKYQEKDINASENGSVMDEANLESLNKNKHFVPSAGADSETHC
multidrug resistance associated protein 2 (human), sequence (Q92887 whole entry): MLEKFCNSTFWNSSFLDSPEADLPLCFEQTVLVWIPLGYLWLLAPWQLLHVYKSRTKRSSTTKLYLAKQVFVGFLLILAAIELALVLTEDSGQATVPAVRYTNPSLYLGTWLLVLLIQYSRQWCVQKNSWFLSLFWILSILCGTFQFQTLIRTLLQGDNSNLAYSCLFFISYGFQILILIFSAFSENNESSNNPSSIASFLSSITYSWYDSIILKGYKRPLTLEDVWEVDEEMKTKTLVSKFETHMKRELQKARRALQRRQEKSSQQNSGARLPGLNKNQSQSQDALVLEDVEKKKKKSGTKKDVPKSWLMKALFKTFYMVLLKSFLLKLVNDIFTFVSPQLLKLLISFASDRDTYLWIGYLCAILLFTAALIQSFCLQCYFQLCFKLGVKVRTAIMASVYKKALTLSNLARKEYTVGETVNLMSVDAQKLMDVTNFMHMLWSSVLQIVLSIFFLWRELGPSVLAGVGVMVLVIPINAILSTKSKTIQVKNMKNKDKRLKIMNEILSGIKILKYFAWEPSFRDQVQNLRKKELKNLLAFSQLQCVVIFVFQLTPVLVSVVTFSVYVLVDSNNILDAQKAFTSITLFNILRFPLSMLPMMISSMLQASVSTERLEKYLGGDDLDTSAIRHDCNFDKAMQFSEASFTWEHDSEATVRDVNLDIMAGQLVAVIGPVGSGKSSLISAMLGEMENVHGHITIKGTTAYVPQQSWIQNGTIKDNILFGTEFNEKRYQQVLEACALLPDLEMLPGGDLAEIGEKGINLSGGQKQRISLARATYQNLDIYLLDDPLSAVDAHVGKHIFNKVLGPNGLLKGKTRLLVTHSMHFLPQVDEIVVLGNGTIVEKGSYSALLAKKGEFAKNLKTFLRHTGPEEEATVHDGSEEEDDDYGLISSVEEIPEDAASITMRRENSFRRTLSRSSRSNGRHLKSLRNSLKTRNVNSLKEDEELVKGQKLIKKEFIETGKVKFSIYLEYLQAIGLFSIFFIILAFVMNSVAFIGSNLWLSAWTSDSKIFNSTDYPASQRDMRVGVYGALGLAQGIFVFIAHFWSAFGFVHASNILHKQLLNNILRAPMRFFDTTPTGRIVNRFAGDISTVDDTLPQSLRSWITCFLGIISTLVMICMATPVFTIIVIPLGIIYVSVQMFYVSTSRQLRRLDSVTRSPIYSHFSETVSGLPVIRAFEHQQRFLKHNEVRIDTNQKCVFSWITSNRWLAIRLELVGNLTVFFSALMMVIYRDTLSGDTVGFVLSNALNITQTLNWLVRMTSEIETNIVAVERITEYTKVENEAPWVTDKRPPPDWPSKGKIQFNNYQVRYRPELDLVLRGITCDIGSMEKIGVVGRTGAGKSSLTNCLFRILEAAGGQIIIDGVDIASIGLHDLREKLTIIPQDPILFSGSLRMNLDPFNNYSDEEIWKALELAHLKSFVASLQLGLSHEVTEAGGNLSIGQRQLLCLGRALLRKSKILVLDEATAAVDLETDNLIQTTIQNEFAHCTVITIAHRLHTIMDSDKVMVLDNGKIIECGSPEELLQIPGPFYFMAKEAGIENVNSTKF

For the substance “3-[D-Ala]-4-[(2S,3R)-3-methyl-2-(methylamino)-4-(4-(methylsulfonyl)piperazin-1-yl)butanoyl]-cyclosporin (peptide)”, the OATP1B13 IC50 in experiment [1] was found to be 4.8 µM. The same substance showed an MRP2 IC50 in experiment [2] of 13 µM.

In experiment [1], “3-[D-Ala]-4-[(2S,3R)-3-methyl-2-(methylamino)-4-morpholinobutanoyl]-cyclosporin (peptide)” yielded an OATP1B13 IC50 of 8.2 µM. Also, in experiment [2], the MRP2 IC50 was found to be 18 µM.

As for “3-[D-Ala]-4-[(2S,3R)-3-methyl-2-(methylamino)-6-morpholinohexanoyl]-cyclosporin (peptide)”, the OATP1B13 IC50 in experiment [1] amounted to 6.9 µM. In addition, in the experiment with CYP3A4, the NIM TDI kinact/Ki was found to be 0.001.

“3-[D-Ala]-4-[(2S,3R)-4-methoxy-3-methyl-2-(methylamino)butanoyl]-cyclosporin (peptide)” registered an OATP1B13 IC50 in experiment [1] of 1.9 µM. The MRP2 IC50 in experiment [2] was determined as 15 µM. In addition, in the experiment with CYP3A4, the NIM TDI kinact/Ki was 5 M⁻¹ s⁻¹.

The substance “3-[D-Ala]-4-[(2S,3R)-5-methoxy-3-methyl-2-(methylamino)pentanoyl]-cyclosporin (peptide)” came in with an OATP1B13 IC50 in experiment [1] of 2.3 µM. Also, in experiment [2], the MRP2 IC50 amounted to 13 µM.

Substance “3-[D-Ala]-4-[(2S,3S)-3-methyl-2-(methylamino)-4-(2-((4-methylpiperazine-1-carbonyl)oxy)ethoxy)butanoyl]-cyclosporin (peptide)” had an OATP1B13 IC50 in experiment [1] of 8.7 µM. This substance registered an MRP2 IC50 in experiment [2] of 30 µM.

Turning to “3-[D-Ala]-4-[(2S,3S)-3-methyl-2-(methylamino)-4-(2-morpholinoethoxy)butanoyl]-cyclosporin (peptide)”, the OATP1B13 IC50 in experiment [1] stood at 7.6 µM. In experiment [2], the MRP2 IC50 worked out at 23 µM.

In experiment [1], “3-[D-Ala]-4-[(2S,3S)-3-methyl-2-(methylamino)-4-((4-methylpiperazine-1-carbonyl)oxy)butanoyl]-cyclosporin (peptide)” registered an OATP1B13 IC50 of 6.7 µM. In experiment [2], this substance showed an MRP2 IC50 of 21 µM.

In experiment [1], “3-[D-Ala]-4-[(2S,3S)-3-methyl-2-(methylamino)-4-((morpholine-4-carbonyl)oxy)butanoyl]-cyclosporin (peptide)” returned an OATP1B13 IC50 of 2.3 µM.

Substance “3-[D-Ala]-4-[(2S,3S)-3-methyl-2-(methylamino)-4-(methylsulfonyl)butanoyl]-cyclosporin (peptide)” showed an OATP1B13 IC50 in experiment [1] of 1.4 µM. In experiment [2], this substance displayed an MRP2 IC50 of 9 µM.

With “3-[D-Ala]-4-[(2S,3S)-3-methyl-4-(2-(methyl(2,2,2-trifluoroethyl)amino)ethoxy)-2-(methylamino)butanoyl]-cyclosporin (peptide)”, the OATP1B13 IC50 in experiment [1] was 1.9 µM.

In turn, “3-[D-Ala]-4-[(2S,3S)-4-(2-(1,1-dioxidothiomorpholino)ethoxy)-3-methyl-2-(methylamino)butanoyl]-cyclosporin (peptide)” gave an OATP1B13 IC50 in experiment [1] of 3 µM. The substance further showed an MRP2 IC50 in experiment [2] of 28 µM.

In the case of “3-[D-Ala]-4-[(2S,3S)-4-(2-(4-cyclobutylpiperazin-1-yl)ethoxy)-3-methyl-2-(methylamino)butanoyl]-cyclosporin (peptide)”, the OATP1B13 IC50 in experiment [1] amounted to 3.5 µM. In the experiment with CYP3A4, the NIM TDI kinact/Ki was 0.0007.

In turn, “3-[D-Ala]-4-[(2S,3S)-4-(2-(4-cyclohexylpiperazin-1-yl)-2-oxoethoxy)-3-methyl-2-(methylamino)butanoyl]-cyclosporin (peptide)” had an OATP1B13 IC50 in experiment [1] of 3.5 µM.

“3-[D-Ala]-4-[(2S,3S)-4-(2-(4-isopropylpiperazin-1-yl)-2-oxoethoxy)-3-methyl-2-(methylamino)butanoyl]-cyclosporin (peptide)” had an OATP1B13 IC50 in experiment [1] of 8 µM.

As for “3-[D-Ala]-4-[(2S,3S)-4-(2-(4-isopropylpiperazin-1-yl)ethoxy)-3-methyl-2-(methylamino)butanoyl]-cyclosporin (peptide)”, the OATP1B13 IC50 in experiment [1] came out at 4.4 µM.

Take “3-[D-Ala]-4-[(2S,3S)-4-(2-((2R,5R)-2,5-dimethylmorpholino)ethoxy)-3-methyl-2-(methylamino)butanoyl]-cyclosporin (peptide)”: in experiment [1], the OATP1B13 IC50 was found to be 3.6 µM.

Turning to “3-[D-Ala]-4-[(2S,3S)-4-(2-((S)-3-methoxypyrrolidin-1-yl)ethoxy)-3-methyl-2-(methylamino)butanoyl]-cyclosporin (peptide)”, the OATP1B13 IC50 in experiment [1] came to 5 µM.

“3-[D-Ala]-4-[(2S,3S)-4-(2-hydroxy-2-methylpropoxy)-3-methyl-2-(methylamino)butanoyl]-cyclosporin (peptide)” registered an OATP1B13 IC50 in experiment [1] of 1.8 µM. Also, the NIM TDI kinact/Ki in the experiment with CYP3A4 was found to be 0.0015.

In turn, “3-[D-Ala]-4-[(2S,3S)-4-((4-ethylpiperazine-1-carbonyl)oxy)-3-methyl-2-(methylamino)butanoyl]-cyclosporin (peptide)” displayed an OATP1B13 IC50 in experiment [1] of 1.9 µM.

Consider “3-[D-Ala]-4-[(2S,3S)-4-(((S)-4-ethylmorpholin-2-yl)methoxy)-3-methyl-2-(methylamino)butanoyl]-cyclosporin (peptide)”, for which the OATP1B13 IC50 in experiment [1] was 1.9 µM. The NIM TDI kinact/Ki in the experiment with CYP3A4 was determined as 0.0004.

“3-[D-Ala]-4-[(2S,3S)-4-(((S)-4-isopropylmorpholin-2-yl)methoxy)-3-methyl-2-(methylamino)butanoyl]-cyclosporin (peptide)” showed an OATP1B13 IC50 in experiment [1] of 4.3 µM.

The substance “3-[D-Ala]-4-[(2S,3S)-4-hydroxy-3-methyl-2-(methylamino)butanoyl]-cyclosporin (peptide)” came in with an OATP1B13 IC50 in experiment [1] of 3.6 µM.

In the case of “3-[D-Ala]-4-[(2S,3S)-4-methoxy-3-methyl-2-(methylamino)butanoyl]-cyclosporin (peptide)”, the OATP1B13 IC50 in experiment [1] was found to be 5.1 µM. The MRP2 IC50 in experiment [2] amounted to 14 µM.

For “3-[D-Ala]-4-[(S)-4-methoxy-3-(methoxymethyl)-2-(methylamino)butanoyl]-cyclosporin (peptide)”, the OATP1B13 IC50 in experiment [1] was found to be 2.6 µM.

As to “3-[D-Ala]-4[(2S,3R)-2-Amino-3-methyl-4-(4-oxetan-3-yl-piperazin-1-yl)]-butanoyl]-cyclosporin (peptide)”, the OATP1B13 IC50 in experiment [1] came to 1.17 µM.

“3-[D-Ala]-4[(2S,3R)-2-Amino-4-(4-cyclobutyl-piperazin-1-yl)-butanoyl]-cyclosporin (peptide)” returned an OATP1B13 IC50 in experiment [1] of 5.2 µM.

On to “3-[D-Ala]-4[(2S,3R)-2-Amino-4-(4-ethyl-piperazin-1-yl)-butanoyl]-cyclosporin (peptide)”, for which the OATP1B13 IC50 in experiment [1] turned out to be 4.56 µM.

Turning to “3-[D-Ala]-4[(2S,3R)-2-Amino-4-(4-isopropyl-piperazin-1-yl)-butanoyl]-cyclosporin (peptide)”, the OATP1B13 IC50 in experiment [1] is 2.44 µM.

As for “3-[D-Ala]-4[(2S,3R)-2-Amino-4-[4-(2-methoxy-ethyl)-piperazin-1-yl]-3-methyl-butanoyl]-cyclosporin (peptide)”, the OATP1B13 IC50 in experiment [1] is 6.1 µM.

As to “3-[D-Ala]-4[(2S,3S)-2-Amino-3-methyl-4-(4-oxetan-3-yl-piperazin-1-yl)-butanoyl]-cyclosporin (peptide)”, the OATP1B13 IC50 in experiment [1] was 1.8 µM.

“3-[D-Ala]-4[(2S,3S)-2-Amino-3-methyl-4-morpholin-4-yl-butanoyl]-cyclosporin (peptide)”: the OATP1B13 IC50 in experiment [1] amounted to 3.6 µM.

Substance “3-[D-Ala]-4[(2S,3S)-2-Amino-4-(4-cyclobutyl-piperazin-1-yl)-3-methyl-butanoyl]-cyclosporin (peptide)” came in with an OATP1B13 IC50 in experiment [1] of 4 µM.

“3-[D-Ala]-4[(2S,3S)-2-Amino-4-(4-ethyl-piperazin-1-yl)-3-methyl-butanoyl]-cyclosporin (peptide)” had an OATP1B13 IC50 in experiment [1] of 5.1 µM.

For the substance “3-[D-Ala]-4[(2S,3S)-2-Amino-4-[4-(2-methoxy-ethyl)-piperazin-1-yl]-3-methyl-butanoyl]-cyclosporin (peptide)”, the OATP1B13 IC50 in experiment [1] came to 3.2 µM.

Regarding “3-[D-Ala]-4[(2S,3S)-3-methyl-2-(methylamino)-4-(4-(methylsulfonyl)piperazin-1-yl)butanoyl]-cyclosporin (peptide)”, the OATP1B13 IC50 in experiment [1] stood at 0.4 µM.
